Paper PMC9163697, “Mechanistic insights into the activation of the IKK kinase complex by the Kaposi’s sarcoma herpes virus oncoprotein vFLIP” (The Journal of Biological Chemistry, 2022)

Columns and labels:
WT vFLIP(1–177) [1] = biological target: T1, WT vFLIP(1–177) (Kaposi's sarcoma-associated herpes …, UniProt Q76RF1 1-177); assay: native MS; proteins and complexes exchanged into 200 mM ammonium acetate pH 8.5, 3.2 μM, nanoelectrospray, Synapt QToF; collision-induced dissociation of selected species; conditions: both partners purified
T1 construct: vFLIP of the Kaposi's sarcoma-associated herpes virus (KSHV), residues 1-177; also called recombinant vFLIP; source: mutants said to be expressed in E. coli

[2] = biological target: the molecule itself; assay: as above
WT vFLIP(1–177) [3] = biological target: T1, WT vFLIP(1–177); assay: native gel or EMSA; blue native gel (4–20%), 8–10 μg of purified complexes of IKKγ(150–272) with vFLIP or complexes assembled from the concentrated proteins; bands excised and analysed by SDS-PAGE; conditions: both partners purified

B1: IKKγ(150–272) (domain or fragment, UniProt Q9Y6K9 150-272, looked up)
chain: LGELQESQSRLEAATKECQALEGRARAASEQARQLESEREALQQQHSVQVDQLRMQGQSVEAALRMERQAASEEKRKLAQLQVAYHQLFQEYDNHIKSSVVGSERKRGMQLEDLKQQLQQAEE
notes: IKKγ (Nemo), regulatory subunit of the IKK kinase complex, residues 150-272; also called Nemo; WT IKKγ
stoichiometry N (WT vFLIP(1–177) [1]): 0.5 vFLIP per IKKγ | binding result [2]: binds | stoichiometry N (WT vFLIP(1–177) [3]): 1 vFLIP per IKKγ
